The values that follow come from doi:10.1101/790667 (bioRxiv, 2019).

In this assay the target is T1, human CASK PDZ domain (residues 487-572) (human, UniProt O14936 487-572).
T1 sequence (looked up): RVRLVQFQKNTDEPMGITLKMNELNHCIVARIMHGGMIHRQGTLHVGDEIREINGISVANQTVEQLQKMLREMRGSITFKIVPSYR
Description: differential scanning fluorimetry.

* marks the point of attachment. Dansyl = CN(C)c1cccc2c(S(=O)(=O)*)cccc12

B1: Syndecan1 peptide (residues 303-310) (peptide)
peptide: Dansyl-TKQEEFYA-OH
SMILES: C[C@H](NC(=O)[C@H](Cc1ccc(O)cc1)NC(=O)[C@H](Cc1ccccc1)NC(=O)[C@H](CCC(=O)O)NC(=O)[C@H](CCC(=O)O)NC(=O)[C@H](CCC(N)=O)NC(=O)[C@H](CCCCN)NC(=O)[C@@H](NS(=O)(=O)c1cccc2c(N(C)C)cccc12)[C@@H](C)O)C(=O)O
In the case of B1, the binding result is on record as “binds”.

B2: Neurexin peptide (residues 1,470-1,477) (peptide)
peptide: Dansyl-NKDKEYYV-OH
SMILES: CC(C)[C@H](NC(=O)[C@H](Cc1ccc(O)cc1)NC(=O)[C@H](Cc1ccc(O)cc1)NC(=O)[C@H](CCC(=O)O)NC(=O)[C@H](CCCCN)NC(=O)[C@H](CC(=O)O)NC(=O)[C@H](CCCCN)NC(=O)[C@H](CC(N)=O)NS(=O)(=O)c1cccc2c(N(C)C)cccc12)C(=O)O
Take B2: the binding result was “binds”.

B3: Caspr4 peptide (residues 1,301-1,308) (peptide)
peptide: Dansyl-ENQKEYFF-OH
SMILES: CN(C)c1cccc2c(S(=O)(=O)N[C@@H](CCC(=O)O)C(=O)N[C@@H](CC(N)=O)C(=O)N[C@@H](CCC(N)=O)C(=O)N[C@@H](CCCCN)C(=O)N[C@@H](CCC(=O)O)C(=O)N[C@@H](Cc3ccc(O)cc3)C(=O)N[C@@H](Cc3ccccc3)C(=O)N[C@@H](Cc3ccccc3)C(=O)O)cccc12
On to B3, for which the binding result was “binds”.
